Results: publication PMC10540216, “Activity Guided Azide-methyllysine Photo-trapping for Substrate Profiling of Lysine Demethylases” (Journal of the American Chemical Society, 2023)

B1: KRT85_HUMAN (protein, UniProt P78386 1-507, looked up)
Keratin, type II cuticular Hb5: MSCRSYRISSGCGVTRNFSSCSAVAPKTGNRCCISAAPYRGVSCYRGLTGFGSRSLCNLGSCGPRIAVGGFRAGSCGRSFGYRSGGVCGPSPPCITTVSVNESLLTPLNLEIDPNAQCVKQEEKEQIKSLNSRFAAFIDKVRFLEQQNKLLETKWQFYQNQRCCESNLEPLFSGYIETLRREAECVEADSGRLASELNHVQEVLEGYKKKYEEEVALRATAENEFVVLKKDVDCAYLRKSDLEANVEALVEESSFLRRLYEEEIRVLQAHISDTSVIVKMDNSRDLNMDCIIAEIKAQYDDVASRSRAEAESWYRSKCEEMKATVIRHGETLRRTKEEINELNRMIQRLTAEIENAKCQRAKLEAAVAEAEQQGEAALSDARCKLAELEGALQKAKQDMACLLKEYQEVMNSKLGLDIEIATYRRLLEGEEHRLCEGVGSVNVCVSSSRGGVSCGGLSYSTTPGRQITSGPSAIGGSITVVAPDSCAPCQPRSSSFSCGSSRSVRFA
B2: YTDC2_HUMAN (protein, UniProt Q9H6S0 1-1430, looked up)
3'-5' RNA helicase YTHDC2: MSRPSSVSPRQPAPGGGGGGGPSPCGPGGGGRAKGLKDIRIDEEVKIAVNIALERFRYGDQREMEFPSSLTSTERAFIHRLSQSLGLVSKSKGKGANRYLTVKKKDGSETAHAMMTCNLTHNTKHAVRSLIQRFPVTNKERTELLPKTERGNVFAVEAENREMSKTSGRLNNGIPQIPVKRGESEFDSFRQSLPVFEKQEEIVKIIKENKVVLIVGETGSGKTTQIPQFLLDDCFKNGIPCRIFCTQPRRLAAIAVAERVAAERRERIGQTIGYQIRLESRVSPKTLLTFCTNGVLLRTLMAGDSTLSTVTHVIVDEVHERDRFSDFLLTKLRDLLQKHPTLKLILSSAALDVNLFIRYFGSCPVIYIQGRPFEVKEMFLEDILRTTGYTNKEMLKYKKEKQQEEKQQTTLTEWYSAQENSFKPESQRQRTVLNVTDEYDLLDDGGDAVFSQLTEKDVNCLEPWLIKEMDACLSDIWLHKDIDAFAQVFHLILTENVSVDYRHSETSATALMVAAGRGFASQVEQLISMGANVHSKASNGWMALDWAKHFGQTEIVDLLESYSATLEFGNLDESSLVQTNGSDLSAEDRELLKAYHHSFDDEKVDLDLIMHLLYNICHSCDAGAVLIFLPGYDEIVGLRDRILFDDKRFADSTHRYQVFMLHSNMQTSDQKKVLKNPPAGVRKIILSTNIAETSITVNDVVFVIDSGKVKEKSFDALNFVTMLKMVWISKASAIQRKGRAGRCRPGICFRLFSRLRFQNMLEFQTPELLRMPLQELCLHTKLLAPVNCPIADFLMKAPEPPPALIVRNAVQMLKTIDAMDTWEDLTELGYHLADLPVEPHLGKMVLCAVVLKCLDPILTIACTLAYRDPFVLPTQASQKRAAMLCRKRFTAGAFSDHMALLRAFQAWQKARSDGWERAFCEKNFLSQATMEIIIGMRTQLLGQLRASGFVRARGGGDIRDVNTNSENWAVVKAALVAGMYPNLVHVDRENLVLTGPKEKKVRFHPASVLSQPQYKKIPPANGQAAAIKALPTDWLIYDEMTRAHRIANIRCCSAVTPVTILVFCGPARLASNALQEPSSFRVDGIPNDSSDSEMEDKTTANLAALKLDEWLHFTLEPEAASLLLQLRQKWHSLFLRRMRAPSKPWSQVDEATIRAIIAVLSTEEQSAGLQQPSGIGQRPRPMSSEELPLASSWRSNNSRKSSADTEFSDECTTAERVLMKSPSPALHPPQKYKDRGILHPKRGTEDRSDQSSLKSTDSSSYPSPCASPSPPSSGKGSKSPSPRPNMPVRYFIMKSSNLRNLEISQQKGIWSTTPSNERKLNRAFWESSIVYLVFSVQGSGHFQGFSRMSSEIGREKSQDWGSAGLGGVFKVEWIRKESLPFQFAHHLLNPWNDNKKVQISRDGQELEPLVGEQLLQLWERLPLGEKNTTD
B3: NCKP1_HUMAN (protein, UniProt Q9Y2A7 2-1128, looked up)
Nck-associated protein 1: SRSVLQPSQQKLAEKLTILNDRGVGMLTRLYNIKKACGDPKAKPSYLIDKNLESAVKFIVRKFPAVETRNNNQQLAQLQKEKSEILKNLALYYFTFVDVMEFKDHVCELLNTIDVCQVFFDITVNFDLTKNYLDLIITYTTLMILLSRIEERKAIIGLYNYAHEMTHGASDREYPRLGQMIVDYENPLKKMMEEFVPHSKSLSDALISLQMVYPRRNLSADQWRNAQLLSLISAPSTMLNPAQSDTMPCEYLSLDAMEKWIIFGFILCHGILNTDATALNLWKLALQSSSCLSLFRDEVFHIHKAAEDLFVNIRGYNKRINDIRECKEAAVSHAGSMHRERRKFLRSALKELATVLSDQPGLLGPKALFVFMALSFARDEIIWLLRHADNMPKKSADDFIDKHIAELIFYMEELRAHVRKYGPVMQRYYVQYLSGFDAVVLNELVQNLSVCPEDESIIMSSFVNTMTSLSVKQVEDGEVFDFRGMRLDWFRLQAYTSVSKASLGLADHRELGKMMNTIIFHTKMVDSLVEMLVETSDLSIFCFYSRAFEKMFQQCLELPSQSRYSIAFPLLCTHFMSCTHELCPEERHHIGDRSLSLCNMFLDEMAKQARNLITDICTEQCTLSDQLLPKHCAKTISQAVNKKSKKQTGKKGEPEREKPGVESMRKNRLVVTNLDKLHTALSELCFSINYVPNMVVWEHTFTPREYLTSHLEIRFTKSIVGMTMYNQATQEIAKPSELLTSVRAYMTVLQSIENYVQIDITRVFNNVLLQQTQHLDSHGEPTITSLYTNWYLETLLRQVSNGHIAYFPAMKAFVNLPTENELTFNAEEYSDISEMRSLSELLGPYGMKFLSESLMWHISSQVAELKKLVVENVDVLTQMRTSFDKPDQMAALFKRLSSVDSVLKRMTIIGVILSFRSLAQEALRDVLSYHIPFLVSSIEDFKDHIPRETDMKVAMNVYELSSAAGLPCEIDPALVVALSSQKSENISPEEEYKIACLLMVFVAVSLPTLASNVMSQYSPAIEGHCNNIHCLAKAINQIAAALFTIHKGSIEDRLKEFLALASSSLLKIGQETDKTTTRNRESVYLLLDMIVQESPFLTMDLLESCFPYVLLRNAYHAVYKQSVTSSA
B4: ATX2L_HUMAN (protein, UniProt Q8WWM7 1-1075, looked up)
Ataxin-2-like protein: MLKPQPLQQPSQPQQPPPTQQAVARRPPGGTSPPNGGLPGPLATSAAPPGPPAAASPCLGPVAAAGSGLRRGAEGILAPQPPPPQQHQERPGAAAIGSARGQSTGKGPPQSPVFEGVYNNSRMLHFLTAVVGSTCDVKVKNGTTYEGIFKTLSSKFELAVDAVHRKASEPAGGPRREDIVDTMVFKPSDVMLVHFRNVDFNYATKDKFTDSAIAMNSKVNGEHKEKVLQRWEGGDSNSDDYDLESDMSNGWDPNEMFKFNEENYGVKTTYDSSLSSYTVPLEKDNSEEFRQRELRAAQLAREIESSPQYRLRIAMENDDGRTEEEKHSAVQRQGSGRESPSLASREGKYIPLPQRVREGPRGGVRCSSSRGGRPGLSSLPPRGPHHLDNSSPGPGSEARGINGGPSRMSPKAQRPLRGAKTLSSPSNRPSGETSVPPPPAVGRMYPPRSPKSAAPAPISASCPEPPIGSAVPTSSASIPVTSSVSDPGVGSISPASPKISLAPTDVKELSTKEPGRTLEPQELARIAGKVPGLQNEQKRFQLEELRKFGAQFKLQPSSSPENSLDPFPPRILKEEPKGKEKEVDGLLTSEPMGSPVSSKTESVSDKEDKPPLAPSGGTEGPEQPPPPCPSQTGSPPVGLIKGEDKDEGPVAEQVKKSTLNPNAKEFNPTKPLLSVNKSTSTPTSPGPRTHSTPSIPVLTAGQSGLYSPQYISYIPQIHMGPAVQAPQMYPYPVSNSVPGQQGKYRGAKGSLPPQRSDQHQPASAPPMMQAAAAAGPPLVAATPYSSYIPYNPQQFPGQPAMMQPMAHYPSQPVFAPMLQSNPRMLTSGSHPQAIVSSSTPQYPSAEQPTPQALYATVHQSYPHHATQLHAHQPQPATTPTGSQPQSQHAAPSPVQHQAGQAPHLGSGQPQQNLYHPGALTGTPPSLPPGPSAQSPQSSFPQPAAVYAIHHQQLPHGFTNMAHVTQAHVQTGITAAPPPHPGAPHPPQVMLLHPPQSHGGPPQGAVPQSGVPALSASTPSPYPYIGHPQGEQPGQAPGFPGGADDRIREFSLAGGIWHGRAEGLQVGQDARVLGGE

Each molecule was assayed on KDM4A-I71AzF (assay: CASI: photo-crosslinking with HEK293T cell extracts, StrepTactin enrichment and LC-MS/MS proteomics). Details: sheet "Final results but with 0.01".
Type: binding, human
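Note: lysates from HEK293T cells pretreated with a KDM4 inhibitor to raise proteome methylation, affinity-purified after ±UV, gel-resolved, trypsin-digested, with exclusive unique peptides per protein averaged per condition.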

Q: B1 was tested. Which “Fold change (+UV/-UV)” value did it give?
A: 3

Q: For B2, which “Fold change (+UV/-UV)” value is on record?
A: 0.3333

Q: How did the “Fold change (+UV/-UV)” value turn out when B3 was run?
A: 0.6

Q: For B4, which “Fold change (+UV/-UV)” value is on record?
A: 0
